Source: paper PMC5224519, “Developing the IVIG biomimetic, Hexa-Fc, for drug and vaccine applications” (Scientific Reports, 2015)

Assays:
[1] = target: recombinant SIGNR1 (mouse) (UniProt Q8CJ91); experiment: SPR; multichannel SPR (ProteOn XPR36); DC-SIGN or SIGNR1 amine-coupled on GLM chips; Ig preparations or gp120 as analytes, 25°C, 25 μl per minute; 1:1 Langmuir model
[2] = target: soluble recombinant human DC-SIGN tetramers (human) (UniProt Q9NNX6); experiment: as above
[3] = target: hIgG1-Fc-CL309/310CH-TP; experiment: non-reducing SDS-PAGE (blot and Coomassie); 5 μg purified Fc on 4-12% bis-Tris gradient gels, non-reducing or reducing; blot with goat anti-human IgG or Coomassie blue
[4] = target: soluble recombinant human DC-SIGN tetramers (human) (UniProt Q9NNX6); experiment: ELISA; binding to human DC-SIGN of Igs untreated or treated with PNGase F, Endo S or Endo H (Figure S8); format not told in the text shown
[5] = target: T1, soluble recombinant human DC-SIGN tetramers (human, UniProt Q9NNX6 1-404); experiment: SPR; multichannel SPR (ProteOn XPR36); DC-SIGN or SIGNR1 amine-coupled on GLM chips; Ig preparations or gp120 as analytes, 25°C, 25 μl per minute; 1:1 Langmuir model; details: both partners purified
T1 construct: human DC-SIGN, soluble recombinant; also called dendritic cell-specific intercellular adhesion molecule-3-grabbing non-integrin
T1 sequence (looked up): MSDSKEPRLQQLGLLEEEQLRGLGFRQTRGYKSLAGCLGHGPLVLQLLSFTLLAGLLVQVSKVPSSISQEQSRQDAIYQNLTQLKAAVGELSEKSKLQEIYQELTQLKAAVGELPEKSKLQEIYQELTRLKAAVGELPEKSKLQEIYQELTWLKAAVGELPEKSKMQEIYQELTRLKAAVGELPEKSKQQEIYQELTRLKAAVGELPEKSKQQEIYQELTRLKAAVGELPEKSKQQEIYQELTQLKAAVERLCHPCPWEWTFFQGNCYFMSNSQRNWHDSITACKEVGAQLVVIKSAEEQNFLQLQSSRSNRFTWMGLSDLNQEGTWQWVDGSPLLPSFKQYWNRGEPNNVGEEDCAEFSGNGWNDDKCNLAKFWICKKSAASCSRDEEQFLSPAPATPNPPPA

[6] = target: T2, recombinant SIGNR1 (mouse, UniProt Q8CJ91 1-325); experiment: as above; details: both partners purified
T2 construct: mouse SIGNR1, soluble recombinant; also called the mouse orthologue of the human DC-SIGN; source: bought: R&D systems
T2 sequence (looked up): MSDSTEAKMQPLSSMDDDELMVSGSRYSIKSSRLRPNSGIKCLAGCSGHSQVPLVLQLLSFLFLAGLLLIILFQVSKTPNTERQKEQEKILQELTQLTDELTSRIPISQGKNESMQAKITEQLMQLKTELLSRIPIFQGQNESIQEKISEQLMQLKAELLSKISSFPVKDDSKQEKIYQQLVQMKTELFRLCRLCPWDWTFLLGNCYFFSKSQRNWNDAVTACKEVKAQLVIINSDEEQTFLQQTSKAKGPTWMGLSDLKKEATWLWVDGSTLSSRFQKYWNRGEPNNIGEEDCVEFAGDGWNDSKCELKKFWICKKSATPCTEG

Molecule: recombinant HIV gp120 (natural protein)
- Kd [1]: 3.91 nM
- koff [1]: 9.46e-05 s⁻¹
- kon [1]: 27700 M⁻¹ s⁻¹
- Kd [2]: 4.39 nM
- koff [2]: 0.000158 s⁻¹
- kon [2]: 36000 M⁻¹ s⁻¹

Molecule: hexameric-Fc (hexa-Fc), hIgG1-Fc-TP-LH309/310CL
- Kd [2]: 1260 nM
- koff [2]: 0.000839 s⁻¹
- kon [2]: 668 M⁻¹ s⁻¹

Molecule: hIgG1-Fc-CL309/310CH-TP
- stoichiometry N [3]: 6

Molecule: PNGase F treated human IgM (antibody)
- residual binding [4]: 50%

B1: CHO cell derived recombinant (hexameric) IgM-Fc (domain or fragment)
chain: IAELPPKVSVFVPPRDGFFGNPRKSKLICQATGFSPRQIQVSWLREGKQVGSGVTTDQVQAEAKESGPTTYKVTSTLTIKESDWLGQSMFTCRVDHRGLTFQQNASSMCVPDQDTAIRVFAIPPSFASIFLTKSTKLTCLVTDLTTYDSVTISWTRQNGEAVKTHTNISESHPNATFSAVGEASICEDDWNSGERFTCTVTHTDLPSPLKQTISRPKGVALHRPDVYLLPPAREQLNLRESATITCLVTGFSPADVFVQWMQRGQPLSPEKYVTSAPMPEPQAPGRYFAHSILTVSEEEWNTGETYTCVVAHEALPNRVTERTVDKSTGKPTLYNVSLVMSDTAGTCY
modifications: CHO-cell N-glycans; disulfide-linked hexamer. Limits taken as Cmu2-Cmu4 plus tailpiece; needs the secreted isoform (453 aa), not the 474-aa membrane form displayed as P01871
- Kd [5]: 260 nM
- Kd [6]: 2200 nM
